Source: US8455205B2, “Metalloproteinase 9 binding proteins” (Dyax Corp., priority 2008, dated 2013)
Entries after “also recorded” stand apart in the source; their conditions may differ. Blank lines part the entries; values can stand above or below the molecule they belong to.

Key:
MMP-9 [1] = biological target: T1, MMP-9 (Homo sapiens, UniProt P14780); test: Affinity ranking of Fabs by BIACORE Flexchip (SPR); assay type: binding
Source text: Surface Plasmon Resonance (SPR). The interaction of binding protein and a target can be analyzed using SPR. SPR or Biomolecular Interaction Analysis (BIA) detects biospecific interactions in real time, without labeling any of the interactants. Changes in the mass at the binding surface (indicative of a binding event) of the BIA chip result in alterations of the refractive index of light near the surface (the optical phenomenon of surface plasmon resonance (SPR)). The changes in the refractivity generate a detectable signal, which are measured as an indication of real-time reactions between biological molecules. Methods for using SPR are described, for example, in U.S. Pat. No. 5,641,640; Raether, 1988, Surface Plasmons Springer Verlag; Sjolander and Urbaniczky, 1991, Anal. Chem. 63:2338-2345; Szabo et al., 1995, Curr. Opin. Struct. Biol. 5:699-705 and on-line resources provide by BIAcore International AB (Uppsala, Sweden). BIAcore Flexchip can be used to compare and rank interactions in real time, in terms of kinetics, affinity or specificity without the use of labels.
Information from SPR can be used to provide an accurate and quantitative measure of the equilibrium dissociation constant (Kd), and kinetic parameters, including Kon and Koff, for the binding of a binding protein to a target. Such data can be used to compare different biomolecules. For example, selected proteins from an expression library can be compared to identify proteins that have high affinity for the target or that have a slow Koff. This information can also be used to develop structure-activity relationships (SAR). For example, the kinetic and equilibrium binding parameters of matured versions of a parent protein can be compared to the parameters of the parent protein. Variant amino acids at given positions can be identified that correlate with particular binding parameters, e.g., high affinity and slow Koff. This information can be combined with structural modeling (e.g., using homology modeling, energy minimization, or structure determination by x-ray crystallography or NMR). […]
Target sequence in this assay (P14780 94-707): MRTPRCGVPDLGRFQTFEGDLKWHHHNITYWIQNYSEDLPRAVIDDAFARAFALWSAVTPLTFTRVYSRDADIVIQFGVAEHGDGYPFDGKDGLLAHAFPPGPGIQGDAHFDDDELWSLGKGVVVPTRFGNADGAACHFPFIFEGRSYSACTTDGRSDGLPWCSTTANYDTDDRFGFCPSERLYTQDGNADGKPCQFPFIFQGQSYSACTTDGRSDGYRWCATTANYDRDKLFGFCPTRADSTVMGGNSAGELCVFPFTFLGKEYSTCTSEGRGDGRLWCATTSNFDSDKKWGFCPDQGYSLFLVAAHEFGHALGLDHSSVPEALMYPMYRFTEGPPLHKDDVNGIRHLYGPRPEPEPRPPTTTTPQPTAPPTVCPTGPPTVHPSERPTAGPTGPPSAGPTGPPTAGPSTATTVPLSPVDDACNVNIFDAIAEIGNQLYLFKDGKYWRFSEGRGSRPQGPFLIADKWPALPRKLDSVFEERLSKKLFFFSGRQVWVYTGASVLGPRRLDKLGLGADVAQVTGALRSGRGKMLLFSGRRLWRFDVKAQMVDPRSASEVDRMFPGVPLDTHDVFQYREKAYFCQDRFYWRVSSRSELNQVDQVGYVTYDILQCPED

mouse MMP-9 = biological target: T2, mouse MMP-9 (Mus musculus, UniProt P41245); test: Inhibition of mouse MMP-9 activity, fluorogenic substrate; assay type: biochemical
T2 construct: purchased R&D 909-MM
Source text: (§1) The human MMP-1, -2, -3, -7, -8, -9, -10, -12, -13, and -14 were obtained from BIOMOL (Human MMP-9: SE-244, BIOMOL; Human MMP-14: SE-259, BIOMOL; Human MMP-1, -2, -8, -13: MMP MultiPack-1 from BIOMOL; Human MMP-3, -7, -10, -12: MMP MultiPack-2 from BIOMOL). The mouse MMP-2 and -9 were from R&D (Mouse MMP-9: 909-MM, R&D Mouse MMP-2: 924-MP, R&D). The substrate was Mca-Pro-Lys-Pro-Leu-Ala-Leu-Dap(Dnp)-Ala-Arg-NH2 (SEQ ID NO: 951)(M-2225, Bachem) for human MMP-3, and Mca-Lys-Pro-Leu-Gly-Leu-Dap(Dnp)-Ala-Arg-NH2 (SEQ ID NO: 952)(M-2350, Bachem) for all the other enzymes. The substrate concentration in the assay was 10 μM.

human MMP-2 = biological target: T3, human MMP-2 (Homo sapiens, UniProt P08253); test: MMP selectivity panel, residual enzyme activity; assay type: biochemical; details: FIG. 5
T3 construct: purchased BIOMOL MMP MultiPack-1
T3 sequence (P08253 110-660): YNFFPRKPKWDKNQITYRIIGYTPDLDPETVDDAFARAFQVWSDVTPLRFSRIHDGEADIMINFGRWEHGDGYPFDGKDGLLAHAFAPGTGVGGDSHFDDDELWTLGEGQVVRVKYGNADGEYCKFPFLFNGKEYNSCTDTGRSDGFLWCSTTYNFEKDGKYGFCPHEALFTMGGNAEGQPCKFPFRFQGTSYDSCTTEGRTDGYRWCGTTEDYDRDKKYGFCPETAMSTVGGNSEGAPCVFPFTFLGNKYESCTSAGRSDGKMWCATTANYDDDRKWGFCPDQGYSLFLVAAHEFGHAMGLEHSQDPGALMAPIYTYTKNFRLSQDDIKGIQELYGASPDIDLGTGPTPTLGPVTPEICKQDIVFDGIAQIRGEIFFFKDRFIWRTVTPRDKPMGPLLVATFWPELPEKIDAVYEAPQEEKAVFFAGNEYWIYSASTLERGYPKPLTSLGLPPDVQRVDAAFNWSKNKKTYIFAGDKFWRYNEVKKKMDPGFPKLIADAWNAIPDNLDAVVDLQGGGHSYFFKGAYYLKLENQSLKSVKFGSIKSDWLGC
Source text: as §1

MMP-9 [2] = biological target: T1, MMP-9; test: Inhibition of human MMP-9 activity, fluorogenic peptide substrate (IC50 / residual activity at 1 μM antibody); assay type: biochemical; set-up: Human MMP-9 catalytic domain (BIOMOL, SE-244); purchased BIOMOL SE-244
Description: MMP-9 binding proteins can be characterized in assays that measure their modulatory activity toward MMP-9 or fragments thereof in vitro or in vivo. For example, MMP-9 can be combined with a substrate such as Mca-Pro-Leu-Ala-Cys(Mob)-Trp-Ala-Arg-Dap(Dnp)-NH2 (SEQ ID NO: 12) under assay conditions permitting cleavage by MMP-9. The assay is performed in the absence of the MMP-9 binding protein, and in the presence of increasing concentrations of the MMP-9 binding protein. The concentration of binding protein at which 50% of the MMP-9 activity (e.g., binding to the substrate) is inhibited is the IC50 value (Inhibitory Concentration 50%) or EC50 (Effective Concentration 50%) value for that binding protein.
(§2) After sequencing analysis, the phage display were converted into sFabs and then into IgG1s. Their ability to inhibit MMP-9 and other MMPs (1, 3, 7, 8, 9, 10, 12, 13, 14) was determined by usual means. Compounds were initially screened at 1 μM against MMP-9 and those compounds that inhibited MMP-9>80% were subjected to additional screens against purified recombinant human MMPs. For these additional screens, an IC50 value was determined.
The human MMP-1, -2, -3, -7, -8, -9, -10, -12, -13, and -14 were obtained from BIOMOL (Human MMP-9: SE-244, BIOMOL; Human MMP-14: SE-259, BIOMOL; Human MMP-1, -2, -8, -13: MMP MultiPack-1 from BIOMOL; Human MMP-3, -7, -10, -12: MMP MultiPack-2 from BIOMOL). […]
Target sequence in this assay (P14780 107-444 limits assumed): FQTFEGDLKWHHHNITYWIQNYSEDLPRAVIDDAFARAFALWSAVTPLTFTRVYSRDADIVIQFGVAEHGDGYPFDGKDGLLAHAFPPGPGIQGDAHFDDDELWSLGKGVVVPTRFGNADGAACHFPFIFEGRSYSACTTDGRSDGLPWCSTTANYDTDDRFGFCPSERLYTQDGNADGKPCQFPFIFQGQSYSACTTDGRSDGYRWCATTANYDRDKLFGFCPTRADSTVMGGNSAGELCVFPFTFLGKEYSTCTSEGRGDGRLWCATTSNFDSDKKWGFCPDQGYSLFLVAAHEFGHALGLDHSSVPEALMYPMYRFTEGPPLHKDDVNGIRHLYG

human MMP-8 = biological target: T4, human MMP-8 (Homo sapiens, UniProt P22894); test: MMP selectivity panel, residual enzyme activity; assay type: biochemical; details: FIG. 5
T4 construct: purchased BIOMOL MMP MultiPack-1
Description: as §2, §1

human MMP-14 = biological target: T5, human MMP-14 (Homo sapiens, UniProt P50281); test: MMP selectivity panel, residual enzyme activity; assay type: biochemical; details: FIG. 5
T5 construct: purchased BIOMOL SE-259
Description: as §2, §1

human MMP-12 = biological target: T6, human MMP-12 (Homo sapiens, UniProt P39900); test: MMP selectivity panel, residual enzyme activity; assay type: biochemical; details: FIG. 5
T6 construct: purchased BIOMOL MMP MultiPack-2
Description: as §2, §1

human MMP-3 = biological target: T7, human MMP-3 (Homo sapiens, UniProt P08254); test: MMP selectivity panel, residual enzyme activity; assay type: biochemical; details: FIG. 5
T7 construct: purchased BIOMOL MMP MultiPack-2
Description: as §2, §1

T2 sequence (P41245 108-730): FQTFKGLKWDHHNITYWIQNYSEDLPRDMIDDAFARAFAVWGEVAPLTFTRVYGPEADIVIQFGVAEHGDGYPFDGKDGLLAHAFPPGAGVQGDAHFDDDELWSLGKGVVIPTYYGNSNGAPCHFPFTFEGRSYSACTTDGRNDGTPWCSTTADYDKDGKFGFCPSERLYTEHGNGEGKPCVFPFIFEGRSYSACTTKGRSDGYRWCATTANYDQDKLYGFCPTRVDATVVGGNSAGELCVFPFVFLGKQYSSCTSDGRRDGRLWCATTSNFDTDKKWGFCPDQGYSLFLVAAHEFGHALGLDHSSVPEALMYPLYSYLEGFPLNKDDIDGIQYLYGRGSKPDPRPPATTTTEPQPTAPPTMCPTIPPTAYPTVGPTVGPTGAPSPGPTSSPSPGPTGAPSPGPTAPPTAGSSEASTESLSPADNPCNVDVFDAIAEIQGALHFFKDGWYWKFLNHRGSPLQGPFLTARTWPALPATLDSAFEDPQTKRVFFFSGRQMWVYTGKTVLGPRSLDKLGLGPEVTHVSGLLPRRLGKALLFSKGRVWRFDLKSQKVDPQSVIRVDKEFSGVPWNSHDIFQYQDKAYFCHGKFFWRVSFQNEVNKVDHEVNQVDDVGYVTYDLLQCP
T6 sequence (P39900 106-470): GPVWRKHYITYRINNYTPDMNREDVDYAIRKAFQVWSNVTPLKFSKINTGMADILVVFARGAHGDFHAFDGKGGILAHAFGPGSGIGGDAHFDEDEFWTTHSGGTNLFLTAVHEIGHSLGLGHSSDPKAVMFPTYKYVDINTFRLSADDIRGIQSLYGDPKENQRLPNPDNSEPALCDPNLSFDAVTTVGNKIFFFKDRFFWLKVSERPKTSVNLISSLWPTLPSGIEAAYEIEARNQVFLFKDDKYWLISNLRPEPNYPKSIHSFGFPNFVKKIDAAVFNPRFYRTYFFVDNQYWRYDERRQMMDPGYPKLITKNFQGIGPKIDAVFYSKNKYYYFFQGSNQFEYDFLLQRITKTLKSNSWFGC
T7 sequence (P08254 100-477): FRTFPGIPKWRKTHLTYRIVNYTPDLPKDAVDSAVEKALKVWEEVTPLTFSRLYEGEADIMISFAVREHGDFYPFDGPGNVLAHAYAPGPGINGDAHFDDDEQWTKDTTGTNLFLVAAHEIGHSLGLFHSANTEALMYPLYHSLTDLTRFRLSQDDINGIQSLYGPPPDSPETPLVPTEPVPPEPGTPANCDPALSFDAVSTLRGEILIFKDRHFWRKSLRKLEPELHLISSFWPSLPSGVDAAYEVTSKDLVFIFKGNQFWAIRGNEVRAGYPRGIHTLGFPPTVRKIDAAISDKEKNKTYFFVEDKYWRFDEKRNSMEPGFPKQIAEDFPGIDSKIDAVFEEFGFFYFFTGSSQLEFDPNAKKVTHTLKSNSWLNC
T4 sequence (P22894 101-467): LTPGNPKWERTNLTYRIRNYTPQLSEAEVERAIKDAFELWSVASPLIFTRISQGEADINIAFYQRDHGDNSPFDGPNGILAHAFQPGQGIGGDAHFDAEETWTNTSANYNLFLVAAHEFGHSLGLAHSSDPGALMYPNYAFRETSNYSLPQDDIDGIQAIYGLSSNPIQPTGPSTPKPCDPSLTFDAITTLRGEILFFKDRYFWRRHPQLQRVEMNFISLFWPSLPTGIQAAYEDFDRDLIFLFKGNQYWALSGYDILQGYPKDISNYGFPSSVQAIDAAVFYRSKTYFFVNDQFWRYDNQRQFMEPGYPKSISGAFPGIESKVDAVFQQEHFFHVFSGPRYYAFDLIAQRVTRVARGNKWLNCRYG

Difference from reference (MMP-9 [1]; Flexchip spot signal, Fabs from the R0017 plate): 845.8099
ka (MMP-9 [1]; Flexchip, Fabs): No Binding *
kd (MMP-9 [1]; Flexchip, Fabs): No Binding *
Molecule: TIMP-1: endogenous MMP inhibitor, control spot on Flexchip

Inhibition of human MMP-2 (in words) (human MMP-2): not
Selectivity for MMP-9 versus other MMPs tested (MMP-9 [2]; compared to the other human and murine MMPs tested): selective inhibitor of MMP-9
Inhibition of human MMP-8 (in words) (human MMP-8): not
Inhibition of human MMP-14 (in words) (human MMP-14): not
Inhibition of human MMP-12 (in words) (human MMP-12): not
Inhibition of human MMP-3 (in words) (human MMP-3): not
B1: 539A-M0240-B03: Parental isolate (sFab; IgG); h/mMMP-9 antibody inhibitor (antibody, V domains shown)
VL: QYELTQPRSVSGSPGQSVTISCTGTSSDVGGYNYVSWYQQHPGKAPKLMIYDVSKRPSGVPDRFSGSKSGNTASLTISGLQAEDEADYYCCSYAGSYTLVFGGGTKLTVL
VH: EVQLLESGGGLVQPGGSLRLSCAASGFTFSTYQMVWVRQAPGKGLEWVSVIYPSGGPTVYADSVKGRFTISRDNSKNTLYLQMNSLRAEDTAVYYCARGEDYYDSSGPGAFDIWGQGTMVTVSS
Inhibition of mouse MMP-9 activity (in words) (mouse MMP-9): inhibits; also recorded: decrease or inhibit
Inhibition of human MMP-9 activity (in words) (MMP-9 [2]; FIG. 5 / Example 12): inhibits; also recorded: decrease or inhibit
